Data reported in patent US20110065645A1, “Compositions and Methods for Modulating Neuron Degeneration and Neuron Guidance” (The Regents of the University of California, priority 2009, published 2011).

Test system: JNK
Experiment: Phospho-Jun immunoblot in dissociated commissural neurons
Format: cell-based, rat
Settings: within 15 minutes of bath application; 200 ng/ml
Source text: JNK is activated by Wnt5a in commissural axons and required for their A-P guidance. Several Wnt genes are expressed in an anterior-posterior gradient in or around the floor plate of the spinal cord. However, the mechanisms of how Wnt signaling mediates axon attraction and growth have yet to be elucidated. We tested whether JNK signaling is activated in commissural neurons via Wnt5a stimulation by measuring the levels of phospho Jun (FIG. 20A) and also examined whether JNK is required for A-P guidance of commissural axons. Commissural neurons were cultured for 36 hrs and subject to bath application of Wnt5a. […] Furthermore, endogenous Fzd3 and Vgl2 proteins can be detected in rat E13 commissural neuron lysates after 36 hours in culture (anti-Fzd3 and anti-Vgl2 IB, FIG. 20A). The specificity of Fzd3 and Vgl2 antibodies for western blot analysis was validated using knock and mutant mouse line (FIG. 27D and FIG. 27E).
Commissural neuron culture, treatment and lysis. Rat E13 embryos were dissected and commissural neuron culture was prepared as previously described (Augsburger et al., 1999). […] The cells were then lysed on ice and the lysates were analyzed on immunoblots.

B1: Wnt5a: recombinant Wnt5a protein (R&D Systems) (protein, UniProt P41221 62-380, looked up)
Protein Wnt-5a: IIGAQPLCSQLAGLSQGQKKLCHLYQDHMQYIGEGAKTGIKECQYQFRHRRWNCSTVDNTSVFGRVMQIGSRETAFTYAVSAAGVVNAMSRACREGELSTCGCSRAARPKDLPRDWLWGGCGDNIDYGYRFAKEFVDARERERIHAKGSYESARILMNLHNNEAGRRTVYNLADVACKCHGVSGSCSLKTCWLQLADFRKVGDALKEKYDSAAAMRLNSRGKLVQVNSRFNSPTTQDLVYIDPSPDYCVRNESTGSLGTQGRLCNKTSEGMDGCELMCCGRGYDQFKTVQTERCHCKFHWCCYVKCKKCTEIVDQFVCK
B1 was tested. Which “increase of endogenous phospho-Jun levels” value did it give?
Its value is 4 fold.
